Laboratory results as given in publication PMC9413830.

What follows are substances tested on Lys1 (position 1, -----K-----) (assay: potentiometry). Settings: No added salt; only the amphiphile counterions and the added NaOH; none (ultrapure water); 4 mM amphiphile, self-assembled; the assembly morphology changes with pH during the titration.
With “C12-K (lysine amphiphile with a C12 alkyl tail) (synthetic)” the pKa was 8.69. Substance “C14-K (lysine amphiphile with a C14 alkyl tail) (synthetic)” has a pKa of 8.01. In the case of “C16-K (lysine amphiphile with a C16 alkyl tail; L enantiomer titrated) (synthetic)”, the pKa is reported as 7.66.
